Experimental data from a protein production outcome set (Wang et al. 2014).

Test: label from the status in PepcDB records

## MKYIRKSISIFAVLALVFILSFGNVSAGTIYESKTKETVTSGVTLETITRFTDDGWQKINVLRVDLENPNVKVDTLIDSESIKKLTNVKNLAQSAGAVAAVNAGFFNWLKGESGKGYPDGPVIKSGEFLSVDSEYNRYNNSMATIAIDKDNNVYFDFWKTDITLHAPDGSTTRVFQYNKPSPFQYTDITIWTSAWDKYSLGVSQQYPDLVEVVVDNGTVVEIRQGLPAVEIPQNGYVIISRGANAQFLLQHFKVGDPVEISFSTVLDWQKIEMAVTGSAILVKDGQIPEKFSYEISGVHPRTAAGTSKSGKELILVTVDGRQAASKGMTQRELANLMLSLGAYNAINLDGGGSTSMVSRIPGTNDLKVVNTPSDGALRSISTAIGVFSVAPPSELAGMIIETQPNVFVNSSTTLTVKGYDKYFNPVSVDPNSINWSVSGIKGSFAGNVFRAESSGIGTITATVNGIKASTTIRALEAPNKLILSTTKLNLLKGSSYSFTVKGVDNNGYSSYINFADINWTVNGDIATIEKNKITAVKPGTGYIEAAFGDARAYCAVSVASESTYLVDDFEKKNGSFETVPANLPGSYELSSEVKKSGNYSGKLSYDFSYLEGTRAAYLVFPNGGIDLDGNTVEITMMVNNPQQNPNWLRAEVIDSGGQKHLVDFTRDLTWTGWGRVFASLRDIKSPAKLTKIYVVQVNPVPSSGCIYIDDLSLVKATFPEINESTIPKDVVLSDRDNKEAALNKDSIKISVFSGKSNPENMLQKLLNTKFYNKVKADGYMKSIQDISNINTNTHVDIGGTRLITLNTTDKSIRTSASGQWQWFFDKLNSHTGDNIFIFMKNSPDTFVDPLEAKLFKDILIEHKEKTGKNIWVFYGNSSETYYADNGIKYFGVAGLNIGGLTPDNAKNVKYIEITVNGKEVSYQYKSPLK
  protein production: failed

## MIITQGPQFQGKASKRLHVMAKPIGAVCNIDCSYCYYLSKEDLLEYKKGCSPQMDDETLETYIRQYIEGQNTPEIIFSWQGGEPTLLGLDYFKKIVEFQKKYQPEGILISNDLQTNGTLLTDKWCEFLAENNFLVGLSIDGPEMLHNAYRTNKAGRGTFKQVMNAVELLHKHNVKFATLTCVNNLTSRNPLEVYRFLRDV
  protein production: failed

## MTIKRVGILGAGKVGIVLAGLALKAGYEVRISGSGSVDKIDLTISTLVPGAIASENAEVVANSDIIILAIPLSRYKNIDPTLLKGKLVIDAMNYWWETDGIREEVLDPTLTSSEQVQNYFKDSTIVKTFNHMGYHNLQEEALPKGDPKRKALFVTGDNHAAVDEVTKFVDSMGFDQVVHYKLTDGIMTEPGSPLFGASLKYQELKQIIDNFDHTDFGRKISSTLNLEHHHHHH
  protein production: not failed

## MAKYETPPPVRPLEKLITDFSYTNGLDPVNVFNDFLTYIIHGFSPGAPPLQNWKYKRLQNMKFMEMLTGWVQLMASRIKDDTSWYDPFGDLYMALVSKSAQQSQGQFFTPVHICDLMVLCTQTEEKMTGQRMGDPTCGSGRLLLAYHARNPENYLIGEDINRTCCLMTVCNMLIHGCVGEVICHDSLNPGNFVDGWKVNPMLTWTGIPTIKRMNMKEYRAGRNLPASPYIIRKTMLAGSRKHKTDSLLPLQAVFKMLEHHHHHH
  protein production: not failed

## AEPTLYGRYENIKVLEIGQTFKAKMDTGALTASLSAKDIELFQRDGDDWVRFRLATKGADDKVYEHKVSRISKIKGRAEGDDEDDEGINPAKRPVVDLELCLGNKKRTVEVNLVDRSHFNFPLLIGAKALREFGAAINPARRYTADEP
  protein production: failed

## MSGSNSSNHLHEREGTSEESREQSHKHSGLFNPRLFLHSLSHKFSHTPFHKHSHVHPHEHSHGHSHTHGRVDPSIIATQKGLWAVKWSFIGLMVTAVLQIFIVIMSGSVALLADTIHNFGDASTAIPLAIAFTLARRKPSKRFSYGYGRVEDLAGVIIVFLILFSAAVAGYESVTRFLNPRPVEHLQAVALAAIIGCIGNEVVAQFRMKVGKEIGSAALIADGYHARMDGFTSLAVLVGAVGVWLGYPILDPLIGMLITIAILKIVLDSSKLVFTRLLDGVEPEVLDQVKAIAEGVEGVCEVTDLRVRWIGHRLHAEINASVDPSLSVEEGHEIANAVREKLLENFSYLSGTTIHVDPVTASGECCHCGSESPDKRLGRQKRVLNVYPG
  protein production: failed

## MGFIGSGSIGGTIARLAVAAGHQVVLSNSRGPGSLADTVAELGPRASAATSEEAAAAGDIVVVTVPVTAFPDLPAAPLAGKTVIDTCNYGPERDGHIPELDGTSLTSSELLLRYVPGAMLVKGFNNIYFKHLLSLARPAGATDRSYLPIAGDLAPAKAAATEFIDSIGYGVVDAGLLADSWRQATGTPVWGTPYGPPSNEMGRPTGPGAIRAALATATR
  protein production: failed

## MPFRTIARLNPAKPKAGEEFRLQVVAQHPNEPGTRRDAEGKLIPAKYINLVEVYFEGEKVAEARPGPSTSANPLYAFKFKAEKAGTFTIKLKDTDGDTGEASVKLELV
  protein production: not failed

## ATRRYYLGAVELSWDYMQSDLGELPVDARFPPRVPKSFPFNTSVVYKKTLFVEFTDHLFNIAKPRPPWMGLLGPTIQAEVYDTVV
  protein production: failed

## MFALVLAAGRSRRFDGDKRKALLPCGRTLLTACLETAGKVFTETGVVLREDDEVQTLGIPSKVTIIRCKHADLGMGHSLAAGIAAALNSSADAVAILLADMPWIEPQTLRDLARLADPQRIALPMHEGQRGHPVIIGRRFWPRLLALEGDQGAKALITNNPAFCDVMNCDDPGVLRDADTRSALAIACRQHLTAGRDLEHHHHHH
  protein production: failed

## MKLRYLNILKEKLGREPTFVELQAFSVMWSEHCGYSHTKKYIRRLPKTGFEGNAGVVNLDDYYSVAFKIESHNHPSAIEPYNGAATGVGGIIRDVLAMGARPTAIFDSLHMSRIIDGIIEGIADYGNSIGVPTVGGELRISSLYAHNPLVNVLAAGVVRNDMLVDSKASRPGQVIVIFGGATGRDGIHGASFASEDLTGDKATKLSIQVGDPFAEKMLIEAFLEMVEEGLVEGAQDLGAGGVLSATSELVAKGNLGAIVHLDRVPLREPDMEPWEILISESQERMAVVTSPQKASRILEIARKHLLFGDVVAEVIEEPVYRVMYRNDLVMEVPVQLLANAPEEDIVEYTPGKIPEFKRVEFEEVNAREVFEQYDHMVGTDTVVPPGFGAAVMRIKRDGGYSLVTHSRADLALQDTYWGTLIAVLESVRKTLSVGAEPLAITNCVNYGDPDVDPVGLSAMMTALKNACEFSGVPVASGNASLYNTYQGKPIPPTLVVGMLGKVNPQKVAKPKPSKVFAVGWNDFELEREKELWRAIRKLSEEGAFILSSSQLLTRTHVETFREYGLKIEVKLPEVRPAHQMVLVFSERTPVVDVPVKEIGTLSR
  protein production: not failed

## SGHFSALPSLPVGSHAKVSSPQPRGPRYAEGTFISDYSIAMDKIHQQDFVNWLLAQKGKKNDWKHNITQREARALELASQANRKEEEAVEPQSSPAKNPSDEDLLRDLLIQELLACLLDQTNLCRLRSR
  protein production: failed

## MTDIRKAATLVVIRDGANKDIEVLVVRRAKTMRFLPGFVAFPGGAADPSDAEMAKRAFGRPVCAEDDDDPALAVTALRETAEEIGWLLAVRDGEGTKMDTPLAPDEQADLCKGGDALSAWLSARGLAFDLGLLRRIGRFVTPPTQPVRFDTRFFLCVGQHLGEPRLHGAELDAALWTPARDMLTRIQSGELPAVRPTIAVLKALVACPNAEIAMSTLSIGPLPPPAPRA
  protein production: not failed

## EMGVAYLTEVVVNEVVEAHEVPEVQHALNINSSESLIHIVRTRRLNQHVKIVDEDYFLKSIVSDIGNDVASDSIYDYLEKVLNLNISYSSKSITFEPFDEQAYQLFGDVSVAYSATVRSIVYLENTMPFQYNISKHLANEFKFNDFSRRRIK
  protein production: failed
